Assays:
GST-hOGG1 wild type = GST-hOGG1 wild type (human, UniProt O15527 1-345); assay: cell-based or functional assay
hOGG1 F319A = biological target: T1, hOGG1 F319A (human, UniProt O15527 1-345, F319A); assay: pull-down; biotinylated dsDNA with an 8oxoG lesion on Dynabeads M-280 Streptavidin; 2 μg each of hSSB1 and hOGG1 F319A pre-incubated in buffer K with 75 mM KCl at 4°C, then 2 h with beads at 4°C, wash with 100 mM KCl; SDS-PAGE, Coomassie blue; details: both partners purified
T1 construct: human 8-oxoguanine glycosylase 1 (hOGG1) with F319A, from the pGEX-hOGG1 vector; Mutant defective for 8-oxoG recognition; also called hOGG1 mutant (F319A)
T1 sequence (O15527 whole entry F319A): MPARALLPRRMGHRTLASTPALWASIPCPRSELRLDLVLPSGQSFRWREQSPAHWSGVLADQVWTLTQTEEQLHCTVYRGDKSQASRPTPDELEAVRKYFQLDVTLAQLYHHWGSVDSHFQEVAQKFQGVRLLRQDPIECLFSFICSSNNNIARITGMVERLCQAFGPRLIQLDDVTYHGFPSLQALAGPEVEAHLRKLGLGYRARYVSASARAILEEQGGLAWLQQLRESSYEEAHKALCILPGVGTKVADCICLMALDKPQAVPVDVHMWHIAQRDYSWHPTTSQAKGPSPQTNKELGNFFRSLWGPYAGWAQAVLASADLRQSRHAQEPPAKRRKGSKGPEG

GST-hOGG1 wild type, sequence (O15527 whole entry): as the sequence (O15527 whole entry F319A) above, with A319F counted along it

- 8-oxoG incision activity of 20 nM recombinant hOGG1 on a 22 bp dsDNA with 8-oxoG opposite cytosine, with increasing concentrations of hSSB1 (37°C, 30 min) (GST-hOGG1 wild type): 12 fold
- binding result (hOGG1 F319A): binds
B1: recombinant hSSB1 full length, N-terminal (His)6-tag (natural protein, human, UniProt Q9BQ15 1-211, looked up)
chain: MTTETFVKDIKPGLKNLNLIFIVLETGRVTKTKDGHEVRTCKVADKTGSINISVWDDVGNLIQPGDIIRLTKGYASVFKGCLTLYTGRGGDLQKIGEFCMVYSEVPNFSEPNPEYSTQQAPNKAVQNDSNPSASQPTTGPSAASPASENQNGNGLSAPPGPGGGPHPPHTPSHPPSTRITRSQPNHTPAGPPGPSSNPVSNGKETRRSSKR
notes: also called hSSB1 Full length (FL); purified recombinant hSSB1; source: E. coli T7 shuffle strain, purified (Superdex 200)

— PMC4605301, “hSSB1 (NABP2/ OBFC2B) is required for the repair of 8-oxo-guanine by the hOGG1-mediated base excision repair pathway” (Nucleic Acids Research, 2015)
